Measured values from the supplement of paper PMC9170038.

Test system: MS2 coat protein
Assay: apparent KD of MS2 coat protein; designed switch direction (-1 OFF switch, 1 ON switch): -1; higher = weaker reporter binding
Procedure, shortened: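 On Illumina chips, designed RNA switches with common flanks were made by stalled E. coli RNA polymerase. Titrations with SNAP-549-labelled MS2 coat protein, doubling from 0.7 or 1.5 nM to 3 µM, were done with no input, with 200 uM small-molecule ligand, or with an oligonucleotide input. Apparent KD is the median per design over clusters, from curve fits of normalised cluster fluorescence.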

[1] = input ligand: microRNA oligo, concentration not stated
[2] = Eterna round: R95, input ligand: FMN 200 uM
[3] = Eterna round: R95, input ligand: microRNA oligo, concentration not stated
[4] = Eterna round: R95, input ligand: none

| Sequence | apparent KD of MS2 coat protein (input ligand: FMN 200 uM) | apparent KD of MS2 coat protein (input ligand: none) | apparent KD of MS2 coat protein [1] | apparent KD of MS2 coat protein [2] | apparent KD of MS2 coat protein [3] | apparent KD of MS2 coat protein [4] |
| --- | --- | --- | --- | --- | --- | --- |
| UAAUGUAUAUAGGAUAUCUAGCUGGUAACAGCUAGAGAAGGAUGUACAUGAGGAUCACCCAUGUAAAUCAGUGA [Ex6/14-B2] (Eterna round: R97, puzzle: Exclusion 6) | 186 nM | 41.6 nM |  |  |  |  |
| UAAUGUAUAUAGGAUAUCUAGCUGGUAACAGCUAGAGAAGGAUGUACAUGAGGAUCACCCAUGUAAAUCGAUCA [Ex6/11-A2] (Eterna round: R97, puzzle: Exclusion 6) | 83.3 nM | 24.4 nM |  |  |  |  |
| UACACCACAUGAGGAUCAAACAUGAGGAUCACCCAUGUGUAGCAAGCUUUUUGCUCGUCUUAUAAAUAUGUGGUGUA [Electric Eye 7 - Jieux - Sensor, turn-off variant 1] (Eterna round: R97, puzzle: Sensor, turn-off variant 1) | 11.7 nM | 11.9 nM |  |  |  |  |
| UACACCGCAUGAGGAUCAAACAUGAGGAUCACCCAUGUGUAGCAAGCUUUUUGCUCGUCUUAUAAAUAUGUGGUGUA [Electric Eye 9 - Jieux - Sensor, turn-off variant 1] (Eterna round: R97, puzzle: Sensor, turn-off variant 1) | 12.6 nM | 13 nM |  |  |  |  |
| UACAUGAGGAUCACCCAUGUUUUGUCGUGUAUGGUACCCGUUUAGGAUAUCGUGUUAUUGGACCGCGAGAAGGAGAGUAUCAUU [Excl-NG3-LRO05] (Eterna round: R96, puzzle: Exclusion NG 3) | 24 nM | 31.6 nM | 30 nM |  |  |  |
| UACAUGAGGAUCACCCAUGUUUUGUCGUGUAUGGUAUUUAUCUAGGAUAUCAAUUUAAUUAUUUAUGAGAAGGAGAAUAUUAAU [JMF's solution 17] (Eterna round: R96, puzzle: Exclusion NG 3) |  |  | 29.8 nM |  |  |  |
| UACAUGAGGAUCACCCAUGUUUUGUCGUGUAUGGUAUUUAUCUAGGAUAUCAAUUUGUAUAUUUAUGAGAAGGAGAAUAUUAAU [JMF's solution 67] (Eterna round: R96, puzzle: Exclusion NG 3) |  |  | 30.7 nM |  |  |  |
| UACAUGAGGAUCACCCAUGUUUUGUCGUGUAUGGUAUUUAUCUAGGAUAUCAUUUAAUUUAGUUAUGAGAAGGAGAAUAUUAAU [JMF's solution 85] (Eterna round: R96, puzzle: Exclusion NG 3) | 31.3 nM | 27.8 nM | 17 nM |  |  |  |
| UACAUGAGGAUCACCCAUGUUUUGUCGUGUAUGGUAUUUAUCUAGGAUAUCAUUUUAUUUAGGUAUGAGAAGGAGAAUAUUAAU [JMF's solution 93] (Eterna round: R96, puzzle: Exclusion NG 3) |  |  | 23.9 nM |  |  |  |
| UACCGGCGGACCGAAGCUUUUUGCUCGUCUUAUACUACAACAUGAGGAUCACCCAUGUGGUGGUGGUCCGUUGUAGU [JL ViennaUCT Bitein mod 4] (puzzle: Sensor v3, turn-off variant 2) |  |  |  | 20.2 nM | 15.7 nM | 13.5 nM |
| UACCUAAUGGGUGUUUCUCACAUGAGGAUCACCCAUGUCACUAGCUUUUUGCUCAUCUUAUCGAAACACCCUUAGUC [Birerage] (puzzle: Sensor v3, turn-off variant 1) |  |  |  | 21.3 nM | 10.2 nM | 20.8 nM |
| UACCUAUAGUAAGGAUAUCAUUGCGAUUAGCUAUGAGAAGGUACACAUGAGGAUCACCCAUGUCCUCCAAUUAACCGAAAGGUA [7th something] (Eterna round: R96, puzzle: Exclusion NG 1) | 318 nM | 178 nM | 170 nM |  |  |  |
| UACCUGAGGCAAAGCUUUAGGUAUACAUGAGGAUCACCCAUGUAGGAUAUGGUAGGCUUUGCUUACCAGAAGGACAUGUUAAUU [Mat - Exclusion NG 3 - Mod of JL - D32] (Eterna round: R96, puzzle: Exclusion NG 3) | 161 nM | 39.6 nM | 30.4 nM |  |  |  |
| UACGAAUUAGGAUAUGCAAUGGGCUCGCUUUCCUUCGAUAAACUUGAGGAUCACCCAAGUAGAAGGAAUUUGUA [Mod 37 - Jieux - Exclusion 2] (Eterna round: R97, puzzle: Exclusion 2) | 14.8 nM | 12.9 nM |  |  |  |  |
| UACGAGUCAGGAUAUUGGGCAAUAGCAUUACGGAACGAUCACAAGAAGGGACAUGAGGAUCACCCAUGUUAUAU [Candy Rainbow 3] (puzzle: Exclusion 4) |  |  |  |  | 22.3 nM |  |
| UACUGGACAGGAUAUGUUCUUGAGCACUUGAGGAUCACCCAAGUCAUCAAGAACUCAGGCACAGAAGGGUUUAUGC [salish99_ex5_r4_007] (Eterna round: R97, puzzle: Exclusion 5) | 19.1 nM | 14 nM |  |  |  |  |
| UACUUCCGAGGAUAUACAUGAGGAUCACCCAUGUGCUUCAGCAUCGAAAGAUGCAUGGGUAGAAGGCGGUAGUU [LRO-Excl3-19] (puzzle: Exclusion 3) |  |  |  |  | 36.6 nM |  |
| UAGAAAUUCAACGAGUGAAACAUGAGGAUCACCCAUGUGGUGGUAAGGAACAAGCUUUUUGCACGUACUUAUAAGAA [JR_SV3TOV1_Sub003] (puzzle: Sensor v3, turn-off variant 1) |  |  |  | 239 nM | 422 nM | 437 nM |
| UAGAGACAUGAGGAUCACCCAUGUGAGGAUAUAGAGGAAGAUUGCGAGAGGGAGAGGACUAGAAGGCACAGUGA [JR_Exclu1_Sub034] (puzzle: Exclusion 1) |  |  |  | 31.4 nM | 35.2 nM | 47.5 nM |
| UAGAUGUGAGGAUAUGGUAAAGAUAAGAUGAUGAAAGAACUCCAGAAGGCACAUGAGGAUCACCCAUGUAGAUG [JL-ex4-2.15 Jieux mod] (puzzle: Exclusion 4) |  |  |  | 78.1 nM | 22.3 nM | 26 nM |
| UAGCAAGCAAUAAGAUCCCACAUGAGGAUCACCCAUGUGCUCGUCUUAUAAAAGGUUUCGACGAAAACGUCGAGACC [Eli 91 v28] (Eterna round: R97, puzzle: Sensor, turn-off variant 1) | 19.8 nM | 16 nM |  |  |  |  |
| UAGCAUUGCCAAAGGUAGUGCUUUACAUGAGGAUCACCCAUGUAGGAUAUGGUAGGCAAAGCUUACCAGAAGGACAUGAUAAUU [Mat - Exclusion NG 3 - Mod of JL - D12] (Eterna round: R96, puzzle: Exclusion NG 3) | 167 nM | 56.1 nM | 45.1 nM |  |  |  |
| UAGCAUUGCCUUUGGUAGUGCUUUACAUGAGGAUCACCCAUGUAGGAUAUGGUAGGCAAAGCUUACCAGAAGGACAUGAUAAUU [Mat - Exclusion NG 3 - Mod of JL - D11] (Eterna round: R96, puzzle: Exclusion NG 3) | 198 nM | 76 nM | 51.6 nM |  |  |  |
| UAGUGACAUGAGGAUCACCCAUGUGAGGAUAUAGUGAGAGAAAAAAGGAGAGAGAGGACUAGAAGGCACAGUGA [JR_Exclu1_Sub032] (puzzle: Exclusion 1) |  |  |  | 76.6 nM | 52.4 nM | 92.7 nM |
| UAGUUCUGAGGAUAUUCUCCAAAGCACAUGAGGAUCACCCAUGUCCAGUUAUGGCUUUCUGAAGAAGGCAGUCUUA [Eternabot (L2) Solution 49] (Eterna round: R97, puzzle: Exclusion 5) | 87.9 nM | 36.7 nM |  |  |  |  |
| UAUAACCGAGGAUAUACAUGAGGAUCACCCAUGUAAUGUAGUAUAGUGUAUGUAAGAUGUAGAAGGUGGGAUGU (Eterna round: R97, puzzle: Exclusion 3) | 49.8 nM | 59 nM |  |  |  |  |
| UAUAAGGUAGGAUAUACGAAUAAAUAGGGUAGAAUAAUAACACAUGAGGAUCACCCAUGUAGAAGGACCAAUAG [Mat - Exclusion 2 - Mod of my Tesla design - D27] (puzzle: Exclusion 2) |  |  |  | 58.9 nM | 21 nM | 17.2 nM |
| UAUACACAUGAGGAUCACCCAUGUGAGGAUAUGUACAACAACCCGACGGUGUUGUUGUACAGAAGGCACAAAUA [JR_Exclusion1_Sub027] (puzzle: Exclusion 1) |  |  |  |  | 78.9 nM |  |
| UAUAGGCUAGGAUAUACAACACUUGGUUCGAAUGUUUGGAGACAUGAGGAUCACCCAUGUAGAAGGAGCAUUUC [Leleis] (Eterna round: R96, puzzle: Exclusion 2) | 264 nM | 66.5 nM | 54 nM |  |  |  |
| UAUAUAUAGUAAGGAUAUGUAACUAUUUUAUAAACAGAAGGUACUGACAUGAGGAUCACCCAUGUUUUAGUGUGGGCAUGUAGA [JMF's solution 29] (Eterna round: R96, puzzle: Exclusion NG 1) |  |  | 72.6 nM |  |  |  |
